Laboratory results as given in patent US20100041597A1 (published 2010).

Tests used:
[1] = molecular target: T1, PKC-βII (purified isoform) (Homo sapiens (Human), UniProt P05771 2-621); experiment: summary grade, purified isoform ELISA
T1 construct: also called PKC-beta II

PKC-δ (purified isoform) [2] = molecular target: T2, PKC-δ (purified isoform) (Homo sapiens (Human), UniProt Q05655 1-676); experiment: competitive ELISA on purified PKC-δ vs anti-PKC-δ Ab; PRE 50 µM
T2 construct: also called PKC-delta; PKCdelta
T2 sequence (Q05655 whole entry, stated change not applied, canonical isoform): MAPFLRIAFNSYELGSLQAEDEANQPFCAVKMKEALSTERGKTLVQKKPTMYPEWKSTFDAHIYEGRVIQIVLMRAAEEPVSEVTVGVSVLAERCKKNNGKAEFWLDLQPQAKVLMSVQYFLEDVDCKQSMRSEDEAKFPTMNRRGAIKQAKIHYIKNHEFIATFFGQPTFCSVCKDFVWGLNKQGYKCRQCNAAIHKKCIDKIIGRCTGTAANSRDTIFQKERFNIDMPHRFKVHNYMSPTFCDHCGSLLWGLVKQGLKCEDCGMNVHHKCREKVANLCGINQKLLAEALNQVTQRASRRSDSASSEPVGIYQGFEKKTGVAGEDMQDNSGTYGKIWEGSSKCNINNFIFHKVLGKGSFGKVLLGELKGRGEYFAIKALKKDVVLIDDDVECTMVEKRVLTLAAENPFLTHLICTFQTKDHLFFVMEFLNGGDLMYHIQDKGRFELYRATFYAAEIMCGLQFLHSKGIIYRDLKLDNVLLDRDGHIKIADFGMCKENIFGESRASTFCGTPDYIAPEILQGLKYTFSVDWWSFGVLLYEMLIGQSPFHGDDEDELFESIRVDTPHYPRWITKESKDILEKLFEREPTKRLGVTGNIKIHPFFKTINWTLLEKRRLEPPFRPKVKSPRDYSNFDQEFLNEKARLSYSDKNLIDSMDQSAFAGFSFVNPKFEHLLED
Description: (§1) Greiner 96 well ELISA plates were coated with the appropriate PKC isoform diluted in PBSN (PBS with Calcium/Magnesium+0.05% Sodium azide w/w). 50 μL/well at 250 ng/mL was used. Control wells contained PBSN only. Plates were incubated overnight at 4° C.
(§2) The plates were washed 3 times with 200 μL of dH₂O per well, then 100 μL of blocking solution was added per well and the plate incubated for 1 h at 37° C. The washing steps with dH₂O were repeated and 50 μL of the appropriate PRE solution (PRE stock solution [20 mM in DMSO] diluted in PBSN) was added and the plate incubated for 1 h at room temperature.
(§3) 50 μL of 1:1000 dilution of Alkaline Phosphatase (AP) conjugated antibody (anti-rabbit for all except zeta, which was anti-goat) was then added and the plate incubated for 1 h at room temperature. Washing with dH₂O was then repeated. Finally, 100 μL of pNPP solution in pNPP buffer (2 mM MgCl₂, 100 mM Sodium bicarbonate in water, pH 9.8) was added to all wells and incubated for 8 minutes for α, βI, βII ε, and ζ, or for 15-20 mins for […] (until sufficient coloration is observed). The reaction was stopped by addition of Stop solution (2N NaOH) and the absorbance at 405 nm was read on a Galaxy Plate reader.

PKC-δ (purified isoform) [3] = molecular target: T2, PKC-δ (purified isoform); experiment: competitive ELISA on purified PKC-δ vs anti-PKC-δ Ab; PRE 100 µM
Description: as §1, §2, §3

PKC-δ (purified isoform) [4] = molecular target: T2, PKC-δ (purified isoform); experiment: competitive ELISA on purified PKC-δ vs anti-PKC-δ Ab; PRE 200 µM
Description: as §1, §2, §3

[5] = molecular target: T3, PKC-βI (purified isoform) (Homo sapiens (Human), UniProt P05771 2-671); experiment: competitive ELISA on purified PKC-βI vs anti-PKC-βI Ab; PRE 50 µM
T3 construct: also called PKC-beta I
T3 sequence (P05771 2-671 limits assumed): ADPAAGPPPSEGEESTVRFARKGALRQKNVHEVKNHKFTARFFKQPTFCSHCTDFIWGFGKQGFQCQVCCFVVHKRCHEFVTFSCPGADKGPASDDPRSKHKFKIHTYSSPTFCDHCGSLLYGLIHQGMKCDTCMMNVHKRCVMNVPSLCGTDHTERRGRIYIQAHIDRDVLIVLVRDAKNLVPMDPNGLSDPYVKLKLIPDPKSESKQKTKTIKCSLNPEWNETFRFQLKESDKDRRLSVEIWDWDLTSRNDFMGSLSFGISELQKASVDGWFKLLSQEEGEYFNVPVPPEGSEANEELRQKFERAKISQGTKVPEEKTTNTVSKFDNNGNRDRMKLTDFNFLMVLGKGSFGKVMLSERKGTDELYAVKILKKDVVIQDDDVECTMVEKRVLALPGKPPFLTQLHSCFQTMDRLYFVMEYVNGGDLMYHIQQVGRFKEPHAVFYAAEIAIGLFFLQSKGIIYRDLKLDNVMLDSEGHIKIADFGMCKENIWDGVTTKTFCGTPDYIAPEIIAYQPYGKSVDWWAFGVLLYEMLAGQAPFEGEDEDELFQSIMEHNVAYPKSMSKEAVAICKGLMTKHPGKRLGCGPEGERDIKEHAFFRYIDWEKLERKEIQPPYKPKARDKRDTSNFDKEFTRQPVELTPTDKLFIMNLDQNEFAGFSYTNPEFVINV
Description: as §1, §2, §3

[6] = molecular target: T3, PKC-βI (purified isoform); experiment: competitive ELISA on purified PKC-βI vs anti-PKC-βI Ab; PRE 100 µM
Description: as §1, §2, §3

[7] = molecular target: T3, PKC-βI (purified isoform); experiment: competitive ELISA on purified PKC-βI vs anti-PKC-βI Ab; PRE 200 µM
Description: as §1, §2, §3

[8] = molecular target: T1, PKC-βII (purified isoform); experiment: competitive ELISA on purified PKC-βII vs anti-PKC-βII Ab; PRE 50 µM
Description: as §1, §2, §3

[9] = molecular target: T1, PKC-βII (purified isoform); experiment: competitive ELISA on purified PKC-βII vs anti-PKC-βII Ab; PRE 100 µM
Description: as §1, §2, §3

[10] = molecular target: T1, PKC-βII (purified isoform); experiment: competitive ELISA on purified PKC-βII vs anti-PKC-βII Ab; PRE 200 µM
Description: as §1, §2, §3

[11] = molecular target: T4, PKC-ι (endogenous, human cell extracts) (human, UniProt P41743 2-596); experiment: Western-blot competition on cell extracts against the anti-PKC-ι primary antibody; band densitometry
T4 construct: also called PKC-iota
T4 sequence (looked up): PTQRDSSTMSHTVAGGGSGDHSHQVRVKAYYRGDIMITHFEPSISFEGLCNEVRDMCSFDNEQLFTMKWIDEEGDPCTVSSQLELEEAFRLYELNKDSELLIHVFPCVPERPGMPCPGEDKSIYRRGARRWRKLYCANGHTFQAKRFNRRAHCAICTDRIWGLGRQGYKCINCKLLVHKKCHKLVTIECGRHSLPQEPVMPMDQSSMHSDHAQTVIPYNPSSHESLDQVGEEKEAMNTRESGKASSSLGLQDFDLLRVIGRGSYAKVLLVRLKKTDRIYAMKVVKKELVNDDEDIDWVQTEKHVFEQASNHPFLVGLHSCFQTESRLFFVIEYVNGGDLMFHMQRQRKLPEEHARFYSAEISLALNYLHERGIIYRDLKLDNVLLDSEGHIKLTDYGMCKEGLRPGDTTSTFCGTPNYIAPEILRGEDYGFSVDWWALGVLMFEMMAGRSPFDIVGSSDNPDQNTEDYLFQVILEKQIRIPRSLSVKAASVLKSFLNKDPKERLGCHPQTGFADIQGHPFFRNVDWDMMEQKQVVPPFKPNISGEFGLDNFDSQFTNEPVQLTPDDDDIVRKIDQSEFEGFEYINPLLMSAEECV
Description: Binding efficiency and specificity of the peptides PRE 2, 3, 4, 5, 6, 7, 8, 9, 10, 11, 12 and 13 (see Table 3) was also tested using cytoplasmic extracts from different cell lines expressing appropriate PKC isoforms as described for Example 1. Briefly, the protein cytoplasmic extracts were separated by electrophoresis and transferred onto nitrocellulose membranes by standard Western blotting procedures. The bands on the Western blots were detected with matching primary antibodies and alkaline phosphatase conjugated secondary antibody. The bands were then scanned and the relative density measurements obtained.
This procedure to assess the binding characteristics of the PREs is based on competition binding of the PRE with the primary anti-isoform PKC specific antibodies. The lower the measured band density, the greater the binding of the PRE to the PKC isoform. The PREs were added at 10 and 20 times (10×, 20×) the primary antibody concentration, according to classical competition between antigenic peptide and primary antibody. The following cell lines (obtained from the ATCC) were used: H661—NCI human lung carcinoma NSCLC; MDAMB231—human highly invasive breast cancer cell line from pleural effusion; LS180—human colon adenocarcinoma; LnCAP—human prostate adenocarcinoma; CCD16Lu—human lung fibroblasts; Du145—human prostate carcinoma brain metastasis, and T24—human bladder carcinoma.

[12] = molecular target: T5, PKC-α (endogenous, human cell lysates and cells) (human, UniProt P17252 2-672); experiment: anti-PKC-α immunofluorescence, V5E-transfected IMR-32 cells loaded with PRE (label on PKC-α and V5E); control with endocytosis reagent 113
T5 construct: Endogenous protein of human cell lysates, on Western blot membranes (denatured) or in fixed cells; also called PKC-alpha; PKC-A
Text: Neuroblastoma cells from the IMR-32 cell line were stably transfected with a vector containing the V5E sequence of PKC-α as outlined above in Example 13. The V5E sequence is part of the antigenic amino acid sequence that is used to raise the commercially available anti-PKC-α isoform-specific antibody.
The peptides PRE 1, 2, 3, 4, 5, 6, 7, 8, 9, 10, 11, 12 and 13 (see Table 3) were incorporated into the transfected IMR-32 cells via pinocytic endocytosis (Molecular Probes) according to the supplier's recommendations. Following fixation and permeabilization, PKC-α was detected using an Alexa fluor secondary antibody (as described above in Example 8).

T1 sequence (P05771 other isoform, or with tags, fused parts or gaps limits assumed): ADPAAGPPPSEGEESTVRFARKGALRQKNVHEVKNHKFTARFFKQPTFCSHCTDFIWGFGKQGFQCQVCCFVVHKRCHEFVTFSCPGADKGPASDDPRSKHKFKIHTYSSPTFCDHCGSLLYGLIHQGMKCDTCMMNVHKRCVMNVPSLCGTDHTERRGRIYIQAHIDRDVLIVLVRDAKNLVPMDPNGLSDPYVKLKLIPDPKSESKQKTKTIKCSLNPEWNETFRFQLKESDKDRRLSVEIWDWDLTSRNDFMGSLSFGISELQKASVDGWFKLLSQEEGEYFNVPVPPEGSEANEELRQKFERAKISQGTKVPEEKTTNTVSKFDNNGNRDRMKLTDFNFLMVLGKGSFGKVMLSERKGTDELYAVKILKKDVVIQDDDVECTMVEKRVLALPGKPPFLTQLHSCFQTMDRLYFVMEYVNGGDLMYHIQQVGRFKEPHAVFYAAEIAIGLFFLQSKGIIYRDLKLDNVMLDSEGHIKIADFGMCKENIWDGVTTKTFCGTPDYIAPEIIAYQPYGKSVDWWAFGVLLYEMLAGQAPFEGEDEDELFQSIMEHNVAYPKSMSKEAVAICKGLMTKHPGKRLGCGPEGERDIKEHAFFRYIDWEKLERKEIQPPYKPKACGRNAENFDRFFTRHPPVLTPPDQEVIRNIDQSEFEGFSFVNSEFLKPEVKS

B1: PRE 1 (peptide)
peptide: RRKKGGKDFVVKR
notes: Synthetic peptide, solid phase synthesis; termini given free; also called peptide PRE 1
- binding result [1]: no binding (tested: 200 µM)
- binding capacity (%) (PKC-δ (purified isoform) [2]): 35.7%
- binding capacity (%) (PKC-δ (purified isoform) [3]): 45.2%
- binding capacity (%) (PKC-δ (purified isoform) [4]): 49.4%
- binding capacity (%) [5]: 19.8%
- binding capacity (%) [6]: 13.9%
- binding capacity (%) [7]: 13.4%
- binding capacity (%) [8]: 0%
- binding capacity (%) [9]: 0%
- binding capacity (%) [10]: 0%
- binding result [11]: no binding (tested: 20X the primary antibody concentration)
- Relative Fluorescence Intensity [12]: 79
